In the FLAb antibody collection:

B1: unnamed (protein)
chain 1: QAYLQQSGAELVRPGASVKMSCKASGYTFTSYNMHWVKQTPRQGLEWIGAIYPGNGDTSYNQKFKGKATLTVDKSSSTAYMQLSSLTSEDSAVYFCARVVYYSNSYWYFDVWGTGTTVTVSA
chain 2: QIVLSQSPAILSASPGEKVTMTCRASSSVSYMHWYQQKPGSSPKPWIYAPSNLASGVPARFSGSGSGTSYSLTISRVEAEDAATYYCQQWSFNPPTFGAGTKLELK
B2: unnamed (protein)
chain 1: QVQLQQSGPEVVKPGASVKMSCKASGYTFTSYVIHWVRQKPGQGLDWIGYINPYNDGTDYDEKFKGKATLTSDTSTSTAYMELSSLRSEDTAVYYCAREKDNYATGAWFAYWGQGTLVTVSS
chain 2: DIVMTQSPDSLAVSLGERVTMNCKSSQSLLYSTNQKNYLAWYQQKPGQSPKLLIYWASTRESGVPDRFSGSGSGTDFTLTISSVQAEDVAVYYCQQYYSYRTFGGGTKLEIK
B3: unnamed (protein)
chain 1: EVQLLESGGGLVQPGGSLRLSCAASGFTFSSYAMNWVRQAPGKGLEWVSAITMSGITAYYTDDVKGRFTISRDNSKNTLYLQMNSLRAEDTAVYYCAKEEFLPGTHYYYGMDVWGQGTTVTVSS
chain 2: AIQMTQSPSSLSASVGDRVTITCRASQGIRNDLGWYQQKPGKAPKLLIYSASTLQSGVPSRFSGSGSGTDFTLTISSLQPEDFATYCLQDYNYPWTFGQGTKVEIK
B4: unnamed (protein)
chain 1: EVHLVESGGALVKPGGSLRLSCAASGFSFSKYGMSWVRQAPGKGLEWVATISSSGSRTYYPDSVKGRFTISRDNAKNTLYLQMNSLRAEDTAMYYCSISWDGAMDYWGQGTTVTVSS
chain 2: DVVMTQSPLSLPVTLGQPASISCKSSQSIVHSNGNTYLEWYLQKPGQSPQLLVYKVSNRFSGVPDRFSGSGSGTDFTLKISRVEAEDVGTYYCFQGSLVPWAFGGGTKVEIK
B5: unnamed (protein)
chain 1: QVQLQESGPGLVKPSQTLSLTCSFSGFSLSTSGMGVGWIRQPSGKGLEWLAHIWWDGDESYNPSLKSRLTISKDTSKNQVSLKITSVTAADTAVYFCARNRYDPPWFVDWGQGTLVTVSS
chain 2: DIQMTQSTSSLSASVGDRVTITCRASQDISNYLSWYQQKPGKAVKLLIYYTSKLHSGVPSRFSGSGSGTDYTLTISSLQQEDFATYFCLQGKMLPWTFGQGTKLEIK
B6: unnamed (protein)
chain 1: EVQLVQSGAEVKKPGESLKISCKGSGYSFSNYWIGWVRQMPGKGLEWMGIIDPSNSYTRYSPSFQGQVTISADKSISTAYLQWSSLKASDTAMYYCARWYYKPFDVWGQGTLVTVSS
chain 2: QSVLTQPPSVSGAPGQRVTISCTGSSSNIGSGYDVHWYQQLPGTAPKLLIYGNSKRPSGVPDRFSGSKSGTSASLAITGLQSEDEADYYCASWTDGLSLVVFGGGTKLTVL

Experiment: patients with anti-drug antibodies; higher = more immunogenic

Going from B1 to B2, the “patients with anti-drug antibodies” value rises from 1.9% to 15%.

First: B3
Second: B4
The “patients with anti-drug antibodies” value of the first is lower: 2.5% for the first, 6.2% for the second.

Compared with B5, B6 is lower in “patients with anti-drug antibodies” value: 37% for the first, 6% for the second.
